Here are results for ten molecules from US20050058649A1 (published 2005).

Changes are numbered by the printed parent chain.

The chains are these.
T1: phospholipase A2 (PLA2) (Homo sapiens (Human), UniProt O15496 43-165)
T1 sequence: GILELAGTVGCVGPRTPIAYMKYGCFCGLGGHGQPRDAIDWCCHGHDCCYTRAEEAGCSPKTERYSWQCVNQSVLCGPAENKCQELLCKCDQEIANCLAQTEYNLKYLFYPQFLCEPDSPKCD

B1: anti-PLA2 mAb 1.18 (antibody, IgG2, V domains shown)
VH: EVQLVQSGAEVKKPGESLKISCKGSGYSFTNYWINWVRQMPGKGLEWMGIIYPGDSDTRYSPSFQGQVTISADKSISTAYLQWSSLKASDTAMYYCARHRLGFDYWGQGTLVTVSS
VL: DIQMTQSPSSLSASVGDRVTITCRASQGIRNDLDWCQQKPGKAPKRLIYAASSLQSGVPSRFSGSGSGTEFTLTISSLQPEDFATYYCLQHNNYPPTFGQGTKVEIKR
B2: anti-PLA2 mAb 1.21 (antibody, IgG2, V domains shown)
VH: B1 VH with S28R, N31S, N35S, L101E, G102A, Y105I, L111M
VL: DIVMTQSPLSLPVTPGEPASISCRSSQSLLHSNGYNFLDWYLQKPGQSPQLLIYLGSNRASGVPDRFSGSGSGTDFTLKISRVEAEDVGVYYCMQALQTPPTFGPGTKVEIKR
B3: anti-PLA2 mAb 1.27 (antibody, IgG2, V domains shown)
VH: EVQLVQSGAEVKKPGESLKISCKGSGYSFTSYWIGWVRQMPGKGLEWMGIIYPGDSDTRYSPSFQGQVTISADKSISTAYLQWSSLKASDTAMYYCARSWTYGMDVWGQGTTVTVSS
VL: EIVLTQSPGTLSLSPGERATLSCRASQSVRSNYLTWYQQKPGQAPRLLIYGASTRATGIPDRFSGSGSGTDFTLTISRLEPEDFAVYYCQQYGSSPLTFGGGTKVEIKR
B4: anti-PLA2 mAb 1.14 (antibody, IgG2, V domains shown)
VH: B3 VH with F29I, S99H, W100S, T101G, Y102S, G103S, M104F, V106Y, T112L
VL: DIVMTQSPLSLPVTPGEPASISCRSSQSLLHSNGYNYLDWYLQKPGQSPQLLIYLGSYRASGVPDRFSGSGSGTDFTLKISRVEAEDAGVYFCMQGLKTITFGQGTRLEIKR
B5: anti-PLA2 mAb 1.5 (antibody, IgG2, V domains shown)
VH: B3 VH with T30I, S99H, T101S
VL: B3 VL with N32G, T35A, K40R, L47F, T54S
notes: also called 1.5.1
B6: anti-PLA2 mAb 1.7 (antibody, IgG2, V domains shown)
VH: B3 VH with T30I, G103A, M104L, T112A
VL: B3 VL with A25P, I76V
notes: also called 1.7.1
B7: anti-PLA2 mAb 2.15 (antibody, IgG4, V domains shown)
VH: QVQLVESGGGVVQPGRSLRLSCAASGFTFSSYGMHWVRQAPGKGLEWVAVIWYDGSNKYYADSVKGRFTISRDNSKNTLYLQMNSLRAEDTAVYYCARRDWNYAFDIWGQGTMVTVSS
VL: DIQMTQSPSSLSASVGDRVTITCRASQSISNYLNWYQQKPGKAPKFLIYAASSLQSGAPSRFSGSGSGTDFTLTISSLQPEDFATYYCQQSYSTPITFGQGTRLEIKR
B8: anti-PLA2 mAb 2.23 (antibody, IgG4, V domains shown)
VH: QVQLEESGGGVVQPGRSLRLSCAASGFTFSSYGMHWVRQGPGKGLEWVAVIWYDGSNKKYADSVKGRFTISRDNSKNTLYLQMNSLRAEDTAVYYCARDGPIFGVVMGYWGQGTLVTVSS
VL: B7 VL with A25T, Y36F, K45I, F46L, A58V, Q89H, T94I
B9: anti-PLA2 mAb 2.19 (antibody, IgG4, V domains shown)
VH: QVQLVESGGGVVQPGRSLRLSCAASGFTFSSYGMHWVRQAPGKGLEWVAAIWYDGSNKWYADSVKGRFTISRDNSKNTLYLQMNSLRAEDTAVYYCARGGTGTPGAFDIWGQGTMVTVSS
VL: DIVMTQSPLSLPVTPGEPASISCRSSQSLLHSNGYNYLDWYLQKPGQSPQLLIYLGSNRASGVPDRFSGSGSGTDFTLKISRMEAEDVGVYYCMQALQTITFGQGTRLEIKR
notes: also called 2.19.1
B10: anti-PLA2 mAb 2.7 (antibody, IgG4, V domains shown)
VH: GVQLVQSGAEVKKPGESLKISCKGSGYSFTNYWIGWVRQMPGKGLEWMGIIYPGDSDTRYSPSFQGQVTISADKSISTAYLQWSSLKASDTAIYYCARGGVGAFDIWGQGTMVTVSS
VL: EIVLTQSPGTLSLSPGERATLSCRASQIIRRSSLAWYQEKPGQAPRLLIYGASSRATGIPDRFSGSGSGTDFTLTISRLEPEDFAVYYCQQYGSSPPFTFGPGTKVDIKR
notes: also called 2.7.1

The target of the first assay is T1, phospholipase A2 (PLA2). The assay is described as follows: cell-based or functional assay.
As to B1, the “IC50 of inhibition of PLA2 enzyme activity (12-point dose curve)” value (“IC50 of inhibition … (12-point dose curve)” for short) is 0.78 nM.
Still for that read-out and setting: then B2, with 3.64 nM; and B3, with 9.4 nM.
As to B4, the “IC50 of inhibition … (12-point dose curve)” value was 3.9 nM.
Still for that read-out and setting: in the case of B5 it was 2.36 nM; in that of B6, 4.73 nM.
B7: the “IC50 of inhibition … (12-point dose curve)” value is 14.3 nM.
On to B8, for which the “IC50 of inhibition … (12-point dose curve)” value is 14.4 nM.

Another assay deals with T1, phospholipase A2 (PLA2). The assay is described as follows: Biacore 2000, captured Ab, global 1:1 fit. How it is done:
(§1) In the immobilization, HBS-P was used as the running buffer; in the binding studies, HBS-P, with 12 mg/mL of each BSA and dextran, was used as sample and running buffers.
Data were normalized based on the individual antibody capture levels and fit globally to a 1:1 interaction model.
On the technique in general: SPR reads the build-up and loss of mass on a sensor chip optically.
For B1, the affinity, expressed as Kd, was 50 nM; the off-rate constant (koff) is 0.00192 s⁻¹; the kon came to 38600 M⁻¹ s⁻¹.
The like results for B2 were, in that order, 11 nM, 0.00063 s⁻¹ and 57100 M⁻¹ s⁻¹.
For B9, the dissociation constant (Kd) was 6.2 nM, the off-rate (koff) is 0.000115 s⁻¹ and the association rate constant (kon) stood at 18600 M⁻¹ s⁻¹.
The like results for B10 were, in that order, 10 nM, 0.00104 s⁻¹ and 99600 M⁻¹ s⁻¹.
Molecule B3 returned a Kd of 27 nM, a koff of 0.000922 s⁻¹ and an on-rate constant (kon) of 34500 M⁻¹ s⁻¹.
On to B4, for which the Kd turned out to be 18 nM, the dissociation rate constant (koff) was found to be 0.000791 s⁻¹ and the kon was 43900 M⁻¹ s⁻¹.
B5 gave an equilibrium dissociation constant (Kd) of 15 nM, a koff of 0.000713 s⁻¹ and a kon of 48700 M⁻¹ s⁻¹.
B6 yielded a Kd of 9.5 nM, a koff of 0.000451 s⁻¹ and a kon of 47400 M⁻¹ s⁻¹.
The like results for B7 were, in that order, 100 nM, 0.000902 s⁻¹ and 8880 M⁻¹ s⁻¹.
The like results for B8 were, in that order, 120 nM, 0.000969 s⁻¹ and 8270 M⁻¹ s⁻¹.

The target in another assay is T1, phospholipase A2 (PLA2). Put plainly: Biacore 2000, Ab captured from supernatant, 300 nM PLA2. How it is done: as §1
Briefly, antibody supernatants were diluted 1/10 and antibodies were captured individually on the IgG surfaces. After a one-minute wash step, buffer and PLA2 (300 nM) were injected serially (one-minute association, five minute dissociation) over each surface. Capture levels were measured from −20 to 0 seconds and the surfaces were regenerated with a 6-second pulse of 100 mM H₃PO₄.
In turn, B1 yielded a Response of 6 RU.
B2 showed a Response of 61 RU.
Same read-out and setting: in the case of B9 it was 52 RU.
The same measure, in the same setting: in the case of B10 it was 126 RU.
The molecule B3 showed a Response of 78 RU.
With B4, the Response is 74 RU.
Take B5: the Response was determined as 70 RU.
For the molecule B6, the Response is 118 RU.
B7 registered a Response of 37 RU.
Still for that read-out and setting: in the case of B8 it was 7 RU.

Broadly, the Kd is a measure of binding affinity in units of concentration. A word on the koff: it is the rate constant with which the complex falls apart. High values mean a short-lived complex, low ones a long-lived complex. One may read the kon as a measure of how fast the partners come together. A higher kon goes with fast association.
